Laboratory results reported in paper PMC3713453 (Science signaling, 2013).

Key:
Test in all cases: ITC
Gal8_(C-CRD) V244A = Gal8_(C-CRD) V244A (human, UniProt O00214-2 228-359, V244A)
Gal8_(C-CRD) K246A = Gal8_(C-CRD) K246A (human, UniProt O00214-2 228-359, K246A)
Gal8_(C-CRD) H328A = Gal8_(C-CRD) H328A (human, UniProt O00214-2 228-359, H328A)
Gal8_(C-CRD) I312L = Gal8_(C-CRD) I312L (human, UniProt O00214-2 228-359, I312L)
Gal8_(C-CRD) I312V = Gal8_(C-CRD) I312V (human, UniProt O00214-2 228-359, I312V)
Chain of Gal8_(C-CRD) I312V (O00214 186-317 I270V): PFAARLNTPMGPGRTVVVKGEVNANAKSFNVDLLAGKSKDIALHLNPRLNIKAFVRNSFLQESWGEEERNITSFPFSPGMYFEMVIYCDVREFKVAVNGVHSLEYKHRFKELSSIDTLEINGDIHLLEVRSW

Chain of Gal8_(C-CRD) H328A (O00214 186-317 H286A): as the sequence (O00214 186-317 I270V) above, with V85I, H101A counted along it
Chain of Gal8_(C-CRD) V244A (O00214 186-317 V202A): as the sequence (O00214 186-317 I270V) above, with V17A, V85I counted along it
Chain of Gal8_(C-CRD) K246A (O00214 186-317 K204A): as the sequence (O00214 186-317 I270V) above, with K19A, V85I counted along it
Chain of Gal8_(C-CRD) I312L (O00214 186-317 I270L): as the sequence (O00214 186-317 I270V) above, with V85L counted along it

For ARQNPGLAYGNPYS [NDP52_(368-381) peptide], the binding result (Gal8_(C-CRD) V244A) was “binds”, the binding result (Gal8_(C-CRD) K246A) was “binds” and the “fold reduction of affinity against wild-type Gal8_(C-CRD)” value (Gal8_(C-CRD) H328A) was 8 fold. ARQNPGLAYGNPYS [NDP52_(368-381) peptide]: binds (Gal8_(C-CRD) I312L); binds (Gal8_(C-CRD) I312V).
